Here are results for seven molecules from US11667714 (MERUS N V, dated 2023).

Test [1] concerns the target T1, PD-1 on activated human T cells (human, UniProt Q15116 25-288).
T1 construct: whole, on cells
Description: FACS on anti-CD3 activated human T cells, goat anti-human IgG-PE, MFI [lower panel].

Test [2] deals with T2, PD-L1 on activated human T cells (human, UniProt Q9NZQ7 19-290).
T2 construct: whole, on cells
In words: FACS on anti-CD3 activated human T cells, goat anti-human IgG-PE, MFI [upper panel].

Test [3] concerns the target PD-L1 on CHO cells expressing PD-L1 and a T cell activator (Promega) (UniProt Q9NZQ7 19-290). Description: cell-based or functional assay.

Chain of PD-L1 on CHO cells expressing PD-L1 and a T cell activator (Promega) (Q9NZQ7 19-290): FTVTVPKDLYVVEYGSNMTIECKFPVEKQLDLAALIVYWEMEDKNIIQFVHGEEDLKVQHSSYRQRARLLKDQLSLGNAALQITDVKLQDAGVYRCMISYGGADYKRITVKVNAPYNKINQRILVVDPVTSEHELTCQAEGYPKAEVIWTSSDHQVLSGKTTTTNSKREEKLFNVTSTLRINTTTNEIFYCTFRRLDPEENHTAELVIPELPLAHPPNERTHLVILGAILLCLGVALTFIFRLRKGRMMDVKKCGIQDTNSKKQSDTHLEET
T1 sequence (Q15116 25-288): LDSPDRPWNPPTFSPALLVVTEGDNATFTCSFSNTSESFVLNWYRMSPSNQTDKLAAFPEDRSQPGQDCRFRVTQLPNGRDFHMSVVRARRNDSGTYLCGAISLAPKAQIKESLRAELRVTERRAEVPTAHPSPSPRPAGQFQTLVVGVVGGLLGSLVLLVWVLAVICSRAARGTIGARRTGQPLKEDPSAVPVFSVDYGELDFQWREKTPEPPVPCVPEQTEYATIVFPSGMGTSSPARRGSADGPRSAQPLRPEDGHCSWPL
T2 sequence (Q9NZQ7 19-290): as the sequence (Q9NZQ7 19-290) above

B1: parental anti-PD-1 IgG PG7686 (antibody, V domains shown)
VH: QVQLVQSGAEVKKPGSSMKVSCKASGGSFSSAVISWVRQAPGQGLEWMGMIIPVFDTASYAKKFQGRVTITADKSTNTVYMELSRLRSEDAAVYYCARGTVEATLLFDYWGRGTLVTVSS
VL: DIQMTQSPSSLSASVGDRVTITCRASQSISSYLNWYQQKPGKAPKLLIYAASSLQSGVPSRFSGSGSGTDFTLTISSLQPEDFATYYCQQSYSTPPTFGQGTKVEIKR
notes: bivalent monospecific IgG; also called MF7686 in bivalent IgG format; copies: 2 + 2
Consider B1, for which the “EC50 (read off the curve)” value in test [1] is ~0.04 µg/mL.

B2: PG7689 (antibody, V domains shown)
VH: QVQLVQSGAEVKKPGSSVRVSCKASGGTFNTYAINWVRQAPGQGLEWVGRIIPIFGTANYAQKFQGRVTISADKSTTTAYMELSSLRSEDTAVFYCAKDETGYSSSNFQHWGRGTLVTVSS
VL: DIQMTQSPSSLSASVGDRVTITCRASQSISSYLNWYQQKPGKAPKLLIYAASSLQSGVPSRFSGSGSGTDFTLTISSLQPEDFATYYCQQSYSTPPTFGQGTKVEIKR
notes: also called parental anti-PD-L1 IgG of MF6974xMF7689; MF7689 in bivalent IgG format
As for B2, in test [2], the “EC50 (read off the curve)” value was ~0.04 µg/mL.

B3: MF5382xMF1337 PD-L1xTT bispecific IgG (PD-L1 monovalent) (bispecific antibody, V domains shown)
VH 1: EVQLVQSGAEVKNPGSSVKVSCKATGGTFNTYGTNWVRQAPGQGLEWMGGIIPIFGTANYAQKFQGRVTITADKSTTTAYMEVSSLRSEDTAVYYCARGGADMGTLDYWGQGTLVTVSS
VH 2: not shown
VL: not shown
As to B3, the “AUC (PD-1/PD-L1 blockade reporter assay, monovalent)” value (from here on “AUC”) in test [3] turned out to be 2.9.

B4: MF6974 as a bivalent antibody (antibody, V domains shown)
VH: EVQLVESGGDLVQPGGSLRLSCAASGFTFNSYAMSWVRQAPGKGLEWVSTISGGGANIYYADSVKGRFTISRDNSKSTLYLQMNSLRAEDTAVYFCASPYGSGYFDVWGQGTLVTVSS
VL: not shown
notes: bivalent anti-PD-1 IgG; copies: 2 + 2
B4: in test [1], the “EC50 (read off the curve)” value is ~0.05 µg/mL.

B5: MF5557xMF1337 PD-L1xTT bispecific IgG (PD-L1 monovalent) (bispecific antibody, V domains shown)
VH 1: QVQLVQSGAEVKRPGSSVKVSCKASGGTFNTYSITWVRQAPGQGLEWMGGIIPVFGTSKYAQKFQDRVTITADKSTNTAYMELSSLRSEDTAVYYCARDPSFSSSSGWFDPWGQGTLVTVSS
VH 2: not shown
VL: not shown
As to B5, in test [3], the “AUC” value amounted to 3.4.

B6: MF5359xMF1337 PD-L1xTT bispecific IgG (PD-L1 monovalent) (bispecific antibody, V domains shown)
VH 1: EVQLVQSGAEVKKPGSSVKVSCKASGDTFNTYSITWVRQAPGQGLEWMGSIVPIFGTINNAQKFQGRVTITADKSANTAYMELSSLRSEDTAVYYCARDNTMVRGVDYYYMDVWGKGTMVTVSS
VH 2: not shown
VL: not shown
Consider B6, for which the “AUC” value in test [3] stood at 3.9.

B7: MF5576xMF1337 PD-L1xTT bispecific IgG (PD-L1 monovalent) (bispecific antibody, V domains shown)
VH 1: QVQLVQSGSELKKPGASVKVSCKASGYTFTSHAMNWVRQAPGQGLEWMGWINPNTGNPTYAQGFTGRFVFSLDTSVSTAYLQISSLKAEDTAVYYCAIDRGYMSNWVFAEYFPHWGQGTLVTVSS
VL: not shown
VH 2: not shown
For B7, the “AUC” value in test [3] was 4.1.
